B1: SOAT1 (parent)
chain: PSNGRIDIKQLIAKKIKLTAEAEE
B2: TRIM55 (parent)
chain: FQASNPYLPTRGGTTMASGGRFRC

Variants of: B1
Assay: protein stability index of a GFP-peptide fusion (GPS, HEK-293T) (PSI 1-6); higher = more stable
Details: c terminus: a fixed tail appended
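Note: lentivirally expressed fusions sorted by FACS into six bins by GFP to DsRed ratio, PSI derived from sequencing read proportions per bin multiplied by bin number.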

Protein stability index, by site and new letter:
S2: Q 3.63; D 4.03; V 2.96; A 2.88; R 3.08; L 3.09; K 2.58; E 3.46; N 3.61; T 3.79; Y 2.88; M 3.11; C 3.26; P 3.35; I 3.33; H 3.01; G 3.64; W 2.88; F 2.94
P1: V 2.98; M 3.1; C 2.86; I 3.57; F 3.22; D 3.27; G 3.33; Y 3.62; N 3.14; L 3.06; A 3.1; R 3.35; T 3.64; E 2.65; Q 3.23; S 3.46; K 3.04; H 3.24; W 2.92
I6: H 3.61; C 3.26; P 3.37; T 3.58; E 4.06; Y 3.51; Q 3.76; G 4.1; K 3.74; M 2.56; W 2.91; F 2.83; L 3.18; D 4.4; R 3.4; A 3.79; S 3.46; V 3.32; N 3.3
D7: K 3.14; Y 2.35; A 2.96; L 3.38; G 3.02; C 3.12; Q 3.01; T 2.97; E 3.4; R 2.94; V 2.41; N 3.33; W 3.46; I 3.08; M 2.89; S 3.58; F 2.83; P 3.23; H 3.65
K9: G 3.39; E 4.03; A 3.04; F 2.06; N 3.66; T 3.23; L 2.77; V 2.9; S 3.28; R 2.74; C 3.25; Y 3.03; Q 3.47; H 3.07; D 3.87; I 2.29; M 2.99; P 3.69; W 2.02
I8: P 3.38; G 3.89; Q 3.8; E 4.62; N 4.01; A 3.42; C 4.06; M 3.44; D 4.48; F 3.54; W 3.08; L 3.62; H 3.12; V 3.88; T 4.48; K 3.64; R 4.06; Y 4.13; S 3.99
G4: E 4.39; T 3.49; Q 3.57; I 3.18; D 4.92; L 3.48; H 3.36; A 3.77; N 3.76; R 3.56; M 3.61; V 3.04; K 3.77; C 3.33; S 3.57; P 4.09; Y 2.91; F 3.56; W 2.85
I12: F 3.5; E 4.35; Q 4.17; R 3.85; M 3.7; C 3.83; D 4.28; H 3.89; A 3.53; L 3.17; K 3.83; N 3.99; G 3.9; P 3.7
L11: H 3.97; N 3.6; R 3.93; T 4.3; S 3.75; Q 3.58; G 3.75; D 4.04; E 4.15; A 3.83; P 3.66; V 3.57; M 3.22; C 3.5; K 3.68; Y 3.42; I 3.17; F 3.38; W 3.67
R5: Y 3.81; W 3.48; I 3.93; C 3.66; L 4.05; M 3.55; T 4; N 3.94; P 4.16; F 3.49; V 3.82; K 3.68; E 4.42; H 4; Q 3.13; S 3.75; A 3.95; G 4.04; D 4.47
N3: H 4.32; R 3.93; W 3.45; F 3.55; S 4.13; A 4.25; C 3.86; T 4.2; E 4.27; Y 3.42; I 3.87; V 3.58; G 3.88; D 4.38; L 3.46; Q 4.09; M 3.66; K 3.96; P 4.11
Q10: K 3.3; T 3.45; W 2.35; M 2.67; G 3.59; I 2.18; V 2.33; P 3.88; L 3.18; Y 2.43; N 3.21; A 3.35; R 2.7; S 3.1; F 2.65; D 3.58; E 3.73; C 3.19; H 2.57

Variants of: B2
Assay: as above
Details: c terminus: a fixed tail appended

Protein stability index: each site, then its substitutions
G20: M 3.49; W 2.07; Y 1.63; L 2.24; V 1.77; S 1.34; Q 1.68; E 1.97; D 1.72; H 1.66; R 1.96; P 2.19; I 1.73; F 1.53; T 1.71; K 2.1; N 1.72; A 2.62; C 1.6
C24: F 2.23; D 2.6; M 1.37; Q 2.22; E 2.51; P 1.41; G 2.19; H 2.08; A 2.21; S 1.43; N 3.51; I 2.03; R 1.5; V 1.76; T 2; K 2.47; L 1.57; W 1.94; Y 1.62
R21: T 1.04; A 1.18; E 2.18; G 1.53; Y 1.68; H 1.68; V 1.42; M 1.81; N 2.49; D 1.81; I 1.42; F 1.71; Q 1.85; L 2.42; K 3.08; S 1.75; P 2.12; C 2.35
F22: E 2.46; T 1.8; Q 3.22; W 2.51; G 1.43; I 1.57; K 2.61; Y 2.47; A 1.42; M 2.25; P 3.87; N 2.14; C 2.18; R 2.13; S 1.75; V 1.38; D 1.41; H 2.29
G19: M 1.49; W 1.63; A 1.7; K 2.39; C 2.9; I 2.04; V 2.07; T 2.28; N 1.77; S 1.83; D 2.06; F 1.91; E 1.71; P 1.83; H 2.48; Y 2.06; L 2; Q 2.06; R 1.9
R23: H 1.56; I 1.62; G 1.6; E 1.99; M 1.61; V 1.88; Q 1.71; K 2.1; T 1.64; F 1.51; P 2.91; N 1.48; Y 2.5; A 2.37; D 2.02; C 2.9; S 1.8; L 2.98
